Test results taken from the DeepSol protein solubility set.

Experiment: soluble on expression in E. coli; label from the status in PepcDB or PDB records

Sequence	soluble on expression in E. coli
MGSDKIHHHHHHSDSFTYPSAYGWWSVDNGYDVNNVNSRMVSGDFNGDGKADVATFYDYGNGASRIHVFTSNGSSFDYASAYGWWNTPSGYDPKRITAVVAGDFNGDHKDDIAVIYNYGNSETRIHVFISTGSSFSYTDCNGWWNATGYDAGRITGAVAGDFNGDGKSDIATMYDYGGGETRIHVFTSTGSSFTYTGANGWWNSTGYDSNRVKGRVVAGDFNGDGKTDIAAMYDYGGSESRIHVFLSTGDSFKYTGANGWWSTTGYDANKVTGRLVAGDFNGDGKADIAAMYDYGNAETRIHVLTSNGDSFTYTGANGWWNTTGYDANRVTGRVVAGDFNGDHKADIAAFYDYGSSASRIHVFTSNADSPESSKGAELVAYAESFLGVPYVWGGADPSGFDCSGLVQYCYEHFGVDLPRTTYDQVNCGTTVTDDLQPGDLLFFGSATSPTHVAIYAGNSKMVEAPHTGANVRLVDIRSYFIAKRIFN	not soluble
MGSDKIHHHHHHSQRQMDIIGNNLANSSTLGYKSADTQFANMLSQSLTSGSGSFQVGQGVAISSVNTKFDQGSFESTGSVTDMAIDGEGFFPVKDKEGAIYYTRAGAFVIDKDGYLVDVNGYRVQGINLFSAPGDAELTDICLKNIQSAPSATKTFGIGVNLNDSEDAGTSFVVSQNVFDSKGAIHNLSLTFTKTEGDGYWGCQAKLDNVETINSSCCGIKFDESGNLKNTYLTSCSAGAVSGGGAITSTTVNKPGQLYLNGTIACTRGADADTWTISSSEYPNLEFSLGDLGNDDEIAIDLDGKGGTDITLALGAGFADLSSFDLTISQVESNAADVTFEFPGLANGADIGSGNALTWNLIGDDALQVTGYAATSVIKALEVDGYTSGVLKSLSVEKDGIISGIFTNGQTSDLGQVVLANFPNVGALRKIGSYFAETNFSGAAIINSPGTGGLGEIMSNSLEQSNTDVSMEFVNMINAQRAYQASARIITTSDEMLTELMNIKR	not soluble
MGSDKIHHHHHHSRSTKGVRELSLFNRHTGEYNNGSYWVDGHYQSEVLADFSHLLRDHRQNVAAPMDKRLFDLLYTLKSTLNTDKEIHVISGYRSPKTNAMLAGKSGGVAKKSYHMQGMAMDIAIPGVNLKTIRDAALSLKLGGVGYYPKSGFVHVDCGPVRHW	not soluble
MGSDKIHHHHHHTDENETNNGKRTDCYNGTPLTVRATATGFENVPGSEKPSTRASVTDEHLKTEFVDGDSIGIFSIKDSTIVDDINNIPLVYNVSNDSWNPVENSKTLYWYDGASYIAYYPYRKNITLDVSKDTDEAIASLTRNEKLQPSKDQSTKEKHTVSDLLIATGVPTTGNSSGIILNLQFKHQFTLLVLQPQAYIGCFAPENAGFVYHKESRILGTDSAAINVNLNGITPYQIDSVKFCAIVPSQKNARITGSYVTADGRNNTNTKINYSGSSITFASGKCYTLKVISPVPGKGSTERKLYPGDFVFQNETEKRIEIHPGDGMLEENGKIYDYQNAIGMVITCDSKKMTDVKCNENGWNHAYVMGFENLGTGRWGGMERIEEGITPMTKDDEIEKNMNGYSETEQMLKNYTANVQGSYSAFESIRKYRNSNKIPDGLNRSPWFVPSIGQWFDMLVNICGKSPRDFRNETSNGLNDTGWGQETLDKLTIQLSKVGNSLPQFSDTYRLGFSCSSQYDKDRCWMLLWHIDDPEYPNWDRVCLQGYDKKAYWNVRPFFAF	not soluble
MGSDKIHHHHHHVAKSIAGGVRPGIIIDIEHRLLKQIIVGKQKAAASMFDDLDRELENDANKLAIERDAVFERLSKQIQARQVYEAVSKQLITTVNSTLDNQLASPELLIQHSGINASQMLMLELLQQKNLDLSRLRLLIADLPWLARDLTNMVNSPSFRHKRQQRSDVKVTEIKLVLNFIGVENLRLLIPYYCLRNWLPTGHANLLWTTRKLWRYAMVTGIAAKALAQLNEQDMATAYTSSLLYQLGVSVVLKNGAKVYESIWGNWLREASASRDKELHDAVLATEFPAEDIYQQVLQHAHTLNWRLPELLDFSASGLTQTQRELDTCLSYSELSTEAALVARASCYAKVLMLDEMRLISPKEKQMMFDYYQLSEQEQIRLKGQNYRKLDLY	not soluble
MGSDKIHHHHHHVAPSIRARSAGRDETEFDFMMTDPLALAKRLIALRARIVATFNAGNWEEVGLLSGQSKIITGHDRLLRSLSWHDEDYEGNVLTVLRRISDRDVRALDVIEEYLNEKFPGEEKTEYVSAKPSERKITFAPNVFQIPDGSVESDLVAVMMPFSPEFKPVYEAMKRACTANSLRSMRVDDMWQDSVIVQDIFSLIFRAQVVVVDFSRKNPNVMYETGIAHTLGKHVVPIAQTIDDVPFDMRHHRTLLYLANGEGLQQLERELAAKLKQFGGGGPPIINLGFSR	not soluble
MGSDKIHHHHHHVDLGHDVTLFASGDSITSAKLDACWPRALRLDPTIRDALAPHMLMMEKVRKVAHEFDVLHFHLDYMPFPLFTTMDTPFVTTLHGRLDLPELQPVFDACSNVPVVSISDSQRQPLPQANWLNTIYHGLPEQLLTPQAHKKPEYLAFLGRICPEKRVDTAIRIAAQSGLPLKIAAKVDKVDQEYFKREIEPLLSMAHVEFVGEINEAQKPEFLSSAKALLFPIDWSESFGLVMIESMACGTPVIAFNRGSVPEVIDHGVTGYIVEDVQGAVAALQRLDELSRTEMRGRRLNLPLEKMRDWRIGSRVCRHHAG	not soluble
MGSDKIHHHHHHVEQAQLDEYLDRFQLTDVFAGGLREHLQPVAFQAGDWLCRQGDAADRMYLLLEGKLKITHMSATGKRLVLSFKHPFDLVGDIEYVRRTPLMNTVEAVTPVKAVSISYAALEQKGADNPALLRFLLETITMKFELKSHSMSFNLLYPVEVRLASYLLSMTPETPTLPVSDLVDAADLIGTSYRHLNRVLRQFSQDNLIERTNRTITIIDREGLTERVGESIYE	not soluble
MGSDKIHHHHHHVHAASRGAHRRLGAMRSSASQPLLKAALWDMDGTIVDTEPYWIEAEHALVAAHGGQWSHAQAMQLVGQSLVFSAGVLQKAGVKLEAREIIDSLTARVVSKVRKSVPWRPGARELLDQLHEAGIRCALVTMSEGPLAREVVAALPKPYFEFLVTGDTVTNGKPHPEAYLKAVELLQQGDSALTIADCVALEDSAPGVAAAMAAGVATVAIPHIVPLPDDPARATWHSLEGRTVADLQQLVARRSEFAVGDIGLEDAAFRSHGLD	not soluble
MGSDKIHHHHHHVHKSLSNAFEGFSFSGDITTDVLGLLHHHGRQDVAKHVLAVAKTAQRLAPIYDVDSEAAYSAGLLHDISLIFSTSQMLQTALDLGLEPVTAEKRVPYLLHGKLSAAMAEIVFGVKNDSLVHAVSCHTTLCARATTLDKVVFLADKMSWDQEYSPFKPELETALEKSLDEAVGVFLTWTWKQKEKLNSIHPWLIDAWKDYKVGDYA	not soluble
MGSDKIHHHHHHVKTRFFCQSCGQESPRWLGKCPGCGEWNTLVEEVVERAAAKRTPLGVKATPLTEIQIREEERVSSGSQELNRVLGGGIVPGSFVLLGGEPGIGKSTLLLQTAGLLAKGMDVLYISGEESEKQIKLRAERLGIKESRLHILTETRLEVVRDVALAMGPGLLIVDSIQTMVLEELQAAAGSVSQVREGAAFLMRLAKEEEIPIFLVGHVTKEGAIAGPRVLEHIVDTVLYFEGDRHHVYRLLRAVKNRFGSTNEIGVFEMHEDGLVEVPNPSKVFLGENSATAPGSSVAVIVEGSRPLLVEIQALVTPTTYGPPRRTATGIDYNRILMLLAVLDKKVGLHLGAQDVFINIAGGIRIDEPGVDLACIAAIASSLGERPLKRYALVGEVGLTGEVRGISQIEKRVKEAVKLGFEGCIIPRINVSAVKVPGNFTVIAVKTVEEAVQVMFEQ	not soluble
MGSDKIHHHHHHVRACCGDQRAMSATDHGLPAIAELTDKELEVLRLLTAGHTIKSIAALLDRSEASINERLRDARRKTGVGSSRELARLVAGQENWPRKTDLSTPAVSGDADGQPALAARHWPKGTIAMFTLLPLAAGLMLVSAASQQADGPQSSHAAAAIASPLVGKWSLDTSRIPADERPRSVMIAFSVSPDQQWSTQVDIVAPDGSKMTATSTARADGVAVPISGNIPIFDTASLRQPAPNTLVMTLGKSGTPVATRVYTVARDGNSMTETIVWADKTMPKMETTYFNRVG	not soluble
MGSDKIHHHHHHYYYARGTYTHYNLDFDQDVTHLLDLGMKQISLEPVVAQPSDPYAFQEGDLPEILKTYDRLGEELLARRRKGEDFSFFHFNVALDQGPCLPKRLSGCGAGHEYVAISPEGDLYPCHQFVGQEEFKMGSLGQEGVPLNPEIIAKFRSAHVYSKAACRQCWARFSCSGGCHSANHAFSGQLNEVYALGCEFQKKRLEVALYMKIKEA	not soluble
MGSIIFLEDRAFQGRIYGCTTDCPNLQPYFSRCNSIVVQSGCWMIYERPNYQGHQYFLRRGEYPDYQQWMGLSDSIRSCCLIPPHSGAYRMKIYDRDELRGQMSELTDDCLSVQDRFHLTEIHSLNVLEGSWILYEMPNYRGRQYLLRPGEYRRFLDWGAPNAKVGSLRRVMDLYLEHHHHHH	soluble
MGSISRYLLKKAADGLKDEQRLKIEMSDSKSVPECFHFNRERRMPIAEINGEDGFFMFPSQQSLENFENTKKYSNELSPDAIGIPLFQIINCTLPFGKRGHSNTVVGNVPYYKIFKFILRTADEPPPYTVAKIVCSNNGLILYKVPLYDIYKNVSQANVTYSFVGTTSTEPNLLAMAHREGHRDLDTKVNNLNLRWHVTYSPVVTNDHYKLILLADYEVNRLDEDVIRAAKNKMSIDQKDQKVQRFVAAHYTREFETSLFRWVAQEGHLILGEYSTDQGSFGLNNIPPLTEELGCQSLLIHYIEYMKRQRKKIAKEARRQNKRNVANTTNMNMNLM	soluble
MGSLGPKVFKLDQLPGTIGKKAAKGASVKFSESSTQAVIKATYLQVFGRDVYEGQRLKVQEIKLENGEISVRDFVRALAKSDLFRKLYWTPFYVCKAIEYIHRRLLGRPTYGRQENNKYFDIASKKGLYAVVDAILDSLEYTETFGEDTVPYERYLEHHHHHH	soluble
MGSLVHVKEATVITPSDQTPSSVLSLSALDSQLFLRFTIEYLLVYPPVSDPEYSLSGRLKSALSRALVPYFPFSGRVREKPDGGGGLEVNCRGQGALFLEAVSDILTCLDFQKPPRHVTSWRKLLSLHVIDVLAGAPPLVVQLTWLRDGGAALAVGVNHCVSDGIGSAEFLTLFAELSKDSLSQTELKRKHLWDRQLLMPSPIRDSLSHPEFNRVPDLCGFVNRFNAERLVPTSVVFERQKLNELKKLASRLGEFNSKHTSFEVLSAHVWRSWARSLNLPSNQVLKLLFSVNIRDRVKPSLPSGFYGNAFVVGCAQTTVKDLTEKGLSYATMLVKQAKERVGDEYVRSVVEAVSKERASPDSVGVLILSQWSRLGLEKLDFGLGKPVHVGSVCCDRYCLLLPIPEQNDAVKVMVAVPSSSVDTYENLVTSPNA	not soluble
MGSMSMNAEQTVAELIARSNRLGSDPKNTNYAGGNTSAKGTDTDPVTGQPVELLWVKGSGGDLGTLTENGLAVLRLDRMRALVDVYPGVEREDEMVAAFDYCLHGRGGAAPSIDTAMHGLVDAAHVDHLHPDSGIALATAADGEALTKQIFGDRVVWVPWRRPGFQLGLDIADIKRRNPQAIGTILGGHGITAWGSTSAEAEAHSLEIIETAERYIAENGLEHHHHHH	soluble
MGSSHHHHHHGGTGENLYFQGGSGMSNSTEQALLQIAQQIERAVDDEIDRIDQMDDDEILAIRQKRLKQLKEIQARRDEWLRKGHGQYLEIAEPKEFFDNVQSSERIVVHFMRRSTPRCEIIERHLRTIAHEHFETRFCYVDVERIPSLPERFNVMMLPTLMLVEKGHTFHSIIGFDEFGGTDDFTTDTVTQVLAHYGMVNEKGMFAADQNDE	soluble
MGSSHHHHHHGGTGENLYFQGGSGRRLPLFCRRPSRCCGATASGSGSSSAAVLAASAAPSVLVLAARGIATSGRVTNEDRRWWLVHLECAPDVTPGTFVSWLDCCGTHTTKKLIERNIWTIEQVAELDSDRVDELKYKEGCLKMDVVWEHARTIITPLKQREVSGGVESQLQSRILELRKKRELERQRELLARERATVSDKREETLRRLRESVAAKKAALRKKLDEQHGEATPAASESASTEAHRGTAEAAVEDEAVGNIVDRMSGGNPPRA	not soluble
